# Laboratory results: PMC10500460
# Tests used:
# AP2-μ2 (APμ2-HA) = AP2-μ2 (APμ2-HA) (UniProt P84092); assay: biotin-peptide pull-down from lysate, Western blot; conditions: reference: unphosphorylated E7 13-28 peptide; sites T19,T20
# PARD3 = PARD3 (UniProt Q8TEW0); assay: biotin-peptide pull-down from lysate, Western blot; conditions: reference: unphosphorylated E7 13-28 peptide; sites T19,T20
# PTPN13 = PTPN13 (UniProt Q12923); assay: biotin-peptide pull-down from lysate, Western blot; conditions: reference: unphosphorylated E7 13-28 peptide; sites T19,T20
# pRb = pRb (UniProt P06400); assay: biotin-peptide pull-down from lysate, Western blot; conditions: reference: unphosphorylated E7 13-28 peptide; sites T19,T20
# PTPN14 = PTPN14 (UniProt Q15678); assay: GST pull-down after in vitro phosphorylation; conditions: reference: GST-E7 not kinase-treated; sites T5,T7,T19,T20
# IQGAP1 = IQGAP1 (UniProt P46940); assay: GST pull-down after in vitro phosphorylation; conditions: reference: GST-E7 not kinase-treated; sites T5,T7,T19,T20
Substance,binding against the reference (AP2-μ2 (APμ2-HA)),binding against the reference (PARD3),binding against the reference (PTPN13),binding against the reference (pRb),binding against the reference (PTPN14),binding against the reference (IQGAP1)
HPV16 E7 13-28 (from UniProt P03129) pT19/pT20 E7 13-28 peptide,stronger,gained,gained,stronger,–,–
HPV16 E7 (from UniProt P03129) GST-E7 phosphorylated with CKI and GSK3,–,–,–,–,same,stronger
